# From paper PMC11272584 (Nature Metabolism, 2024)
# T1: GIPR M67R (Homo sapiens, UniProt P48546, M67R)
# T1 construct: host or cells: HEK293
# T1 sequence (P48546 22-466 M67R): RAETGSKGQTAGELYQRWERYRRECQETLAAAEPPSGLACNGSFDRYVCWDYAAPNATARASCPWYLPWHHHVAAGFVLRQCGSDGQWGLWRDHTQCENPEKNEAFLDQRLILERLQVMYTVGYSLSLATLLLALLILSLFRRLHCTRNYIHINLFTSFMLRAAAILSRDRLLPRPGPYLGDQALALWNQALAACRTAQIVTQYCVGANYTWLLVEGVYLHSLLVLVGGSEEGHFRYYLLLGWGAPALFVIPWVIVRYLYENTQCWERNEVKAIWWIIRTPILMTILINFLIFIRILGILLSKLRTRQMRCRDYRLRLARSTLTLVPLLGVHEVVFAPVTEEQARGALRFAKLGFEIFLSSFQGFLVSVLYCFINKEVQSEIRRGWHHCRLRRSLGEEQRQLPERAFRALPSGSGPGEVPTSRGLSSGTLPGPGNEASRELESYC
# T2: GIPR T116R (Homo sapiens, UniProt P48546, T116R)
# T2 construct: host or cells: HEK293
# T2 sequence (P48546 22-466 T116R): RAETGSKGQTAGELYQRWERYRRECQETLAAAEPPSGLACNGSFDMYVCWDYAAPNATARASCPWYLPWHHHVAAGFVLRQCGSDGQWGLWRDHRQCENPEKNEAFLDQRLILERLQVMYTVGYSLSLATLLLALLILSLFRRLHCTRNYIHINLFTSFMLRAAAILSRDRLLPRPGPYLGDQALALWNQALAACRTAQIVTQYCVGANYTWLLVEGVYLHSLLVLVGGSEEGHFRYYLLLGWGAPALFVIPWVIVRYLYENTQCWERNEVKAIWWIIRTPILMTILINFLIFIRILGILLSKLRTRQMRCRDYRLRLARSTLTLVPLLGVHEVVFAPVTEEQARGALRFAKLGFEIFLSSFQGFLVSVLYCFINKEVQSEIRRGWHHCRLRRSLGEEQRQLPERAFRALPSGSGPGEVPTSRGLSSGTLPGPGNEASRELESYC
# T3: GIPR Y73H (Homo sapiens, UniProt P48546, Y73H)
# T3 construct: host or cells: HEK293
# T3 sequence (P48546 22-466 Y73H): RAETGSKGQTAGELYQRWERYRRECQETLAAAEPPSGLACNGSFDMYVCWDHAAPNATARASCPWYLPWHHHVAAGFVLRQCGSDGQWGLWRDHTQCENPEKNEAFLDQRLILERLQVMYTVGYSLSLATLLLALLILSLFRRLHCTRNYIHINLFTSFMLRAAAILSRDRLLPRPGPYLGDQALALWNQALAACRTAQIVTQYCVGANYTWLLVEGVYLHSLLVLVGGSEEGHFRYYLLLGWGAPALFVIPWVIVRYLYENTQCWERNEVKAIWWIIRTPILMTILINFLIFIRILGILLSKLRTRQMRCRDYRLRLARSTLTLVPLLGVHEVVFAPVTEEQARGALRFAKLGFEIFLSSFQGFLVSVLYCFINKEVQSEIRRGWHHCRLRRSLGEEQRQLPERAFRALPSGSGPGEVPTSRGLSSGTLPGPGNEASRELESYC
# T4: GIPR V99I (Homo sapiens, UniProt P48546, V99I)
# T4 construct: host or cells: HEK293
# T4 sequence (P48546 22-466 V99I): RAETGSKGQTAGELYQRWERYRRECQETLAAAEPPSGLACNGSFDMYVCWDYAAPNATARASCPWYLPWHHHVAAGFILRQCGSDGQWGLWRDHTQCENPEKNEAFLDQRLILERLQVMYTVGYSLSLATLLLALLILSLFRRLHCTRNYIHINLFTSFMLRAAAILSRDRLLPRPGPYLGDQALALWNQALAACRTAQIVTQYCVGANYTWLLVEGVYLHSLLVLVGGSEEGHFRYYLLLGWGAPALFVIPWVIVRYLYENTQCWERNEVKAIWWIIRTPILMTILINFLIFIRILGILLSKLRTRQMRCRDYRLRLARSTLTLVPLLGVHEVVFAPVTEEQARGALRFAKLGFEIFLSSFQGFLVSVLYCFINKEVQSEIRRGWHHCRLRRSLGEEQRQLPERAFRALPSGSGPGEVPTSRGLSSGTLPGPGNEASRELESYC
# T5: GIPR R101H (Homo sapiens, UniProt P48546, R101H)
# T5 construct: host or cells: HEK293
# T5 sequence (P48546 22-466 R101H): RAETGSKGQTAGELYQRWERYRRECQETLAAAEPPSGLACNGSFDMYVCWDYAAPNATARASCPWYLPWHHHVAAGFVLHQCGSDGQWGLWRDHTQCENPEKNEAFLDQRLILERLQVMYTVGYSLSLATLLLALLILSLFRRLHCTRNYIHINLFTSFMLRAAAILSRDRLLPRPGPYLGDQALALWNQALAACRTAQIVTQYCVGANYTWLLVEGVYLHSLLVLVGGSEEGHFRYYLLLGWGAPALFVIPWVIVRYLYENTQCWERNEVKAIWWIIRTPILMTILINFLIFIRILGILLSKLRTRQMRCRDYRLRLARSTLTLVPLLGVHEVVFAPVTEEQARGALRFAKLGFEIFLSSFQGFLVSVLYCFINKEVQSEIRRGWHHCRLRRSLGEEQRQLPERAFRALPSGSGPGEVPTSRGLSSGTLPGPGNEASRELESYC
# Legend:
# GIPR variants (groups) [1] = assay: β-arrestin 2 recruitment (BRET); conditions: for In vitro groups (β-arrestin): arr part of the in vitro group; for Beta, Barr: in vitro β-arrestin recruitment per GIPR variant;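 as to all read-outs here: BRET readout of β-arrestin 2 recruitment in transiently transfected HEK293 cells expressing WT GIPR or a GIPR variant plus GPCR kinase 2, Rluc8 donor and citrine acceptor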
# GIPR M67R = target: T1, GIPR M67R; assay: cAMP accumulation; type: cell-based
# Protocol: (§1) HEK293 (CRL-1573, American Type Culture Collection) and β-arrestin 1/2 knockout cells, generated from HEK293A[48], were used for cAMP measurement, homologues competition binding and β-arrestin 2 recruitment. […] Both cell lines were cultured at 5% CO2 at 37 °C in Roswell Park Memorial Institute GlutaMAX-I supplemented with 10% fetal bovine serum, 180 units ml^−1 penicillin, and 45 g ml^−1 streptomycin. For the cAMP and binding experiments, cells were transfected with the calcium phosphate precipitation method[49].
# (§2) cAMP production was measured with the DiscoverX Hithunter cAMP assay according to the manufacturer’s protocol (DiscoverX). […] On the day of the assay, the cells were washed twice with HEPES-buffered saline (HBS) and incubated with HBS and 1 mM 3-isobutyl-1-methylxanthine for 30 min at 37 °C. […] After the incubation, the assay medium was removed from the plate and the cells were washed with 30 µl PBS and treated with 40 µl enzyme donor–lysis buffer–chemiluminescent reagents and 10 µl cAMP antibodies for 60 min before 40 µl enzyme acceptor solution added. After a 3-h incubation on a shaking table in the dark, the cAMP accumulation was measured based on luminescence with a Perkin Elmer EnVision 2104 Multilabel Microplate Reader. […]
# GIPR variants (groups) [2] = assay: cAMP accumulation; type: cell-based, human; conditions: for In vitro groups (cAMP): cAMP part of the in vitro group; for percentage_camp: cAMP production compared with WT; for Beta, cAMP: in vitro cAMP production per GIPR variant
# GIPR T116R = target: T2, GIPR T116R; assay: cAMP accumulation; type: cell-based
# Protocol: (§3) HEK293 (CRL-1573, American Type Culture Collection) and β-arrestin 1/2 knockout cells, generated from HEK293A[48], were used for cAMP measurement, homologues competition binding and β-arrestin 2 recruitment. For the internalization assay, endosomal signalling and basal receptor localization experiments, HEK293A (R70507, Thermo Fisher) cells were used. Both cell lines were cultured at 5% CO2 at 37 °C in Roswell Park Memorial Institute GlutaMAX-I supplemented with 10% fetal bovine serum, 180 units ml^−1 penicillin, and 45 g ml^−1 streptomycin. For the cAMP and binding experiments, cells were transfected with the calcium phosphate precipitation method[49]. The polyethyleneimine (PEI) transfection method was used for the β-arrestin 2 recruitment assays[50], endosomal signalling and basal receptor localization assays, while the lipofectamine transfection method was used for the internalization assay.
# (§4) cAMP production was measured with the DiscoverX Hithunter cAMP assay according to the manufacturer’s protocol (DiscoverX). […] On the day of the assay, the cells were washed twice with HEPES-buffered saline (HBS) and incubated with HBS and 1 mM 3-isobutyl-1-methylxanthine for 30 min at 37 °C. […] After a 3-h incubation on a shaking table in the dark, the cAMP accumulation was measured based on luminescence with a Perkin Elmer EnVision 2104 Multilabel Microplate Reader. […]
# GIPR Y73H = target: T3, GIPR Y73H; assay: cAMP accumulation; type: cell-based
# Protocol: as §1, §2
# GIPR V99I = target: T4, GIPR V99I; assay: cAMP accumulation; type: cell-based
# Protocol: as §3, §4
# GIPR R101H = target: T5, GIPR R101H; assay: cAMP accumulation; type: cell-based
# Protocol: as §3, §4
Molecule,Efficacy at 100pmol (cAMP) (GIPR M67R),Efficacy at 100pmol (cAMP) (GIPR T116R),Efficacy at 100pmol (cAMP) (GIPR Y73H),Efficacy at 100pmol (cAMP) (GIPR V99I),Efficacy at 100pmol (cAMP) (GIPR R101H),In vitro groups (β-arrestin) (GIPR variants (groups) [1]),"Beta, Barr (GIPR variants (groups) [1])",In vitro groups (cAMP) (GIPR variants (groups) [2]),percentage_camp (GIPR variants (groups) [2]),"Beta, cAMP (GIPR variants (groups) [2])"
M67R (protein) RAETGSKGQTAGELYQRWERYRRECQETLAAAEPPSGLACNGSFDRYVCWDYAAPNATARASCPWYLPWHHHVAAGFVLRQCGSDGQWGLWRDHTQCENPEKNEAFLDQRLILERLQVMYTVGYSLSLATLLLALLILSLFRRLHCTRNYIHINLFTSFMLRAAAILSRDRLLPRPGPYLGDQALALWNQALAACRTAQIVTQYCVGANYTWLLVEGVYLHSLLVLVGGSEEGHFRYYLLLGWGAPALFVIPWVIVRYLYENTQCWERNEVKAIWWIIRTPILMTILINFLIFIRILGILLSKLRTRQMRCRDYRLRLARSTLTLVPLLGVHEVVFAPVTEEQARGALRFAKLGFEIFLSSFQGFLVSVLYCFINKEVQSEIRRGWHHCRLRRSLGEEQRQLPERAFRALPSGSGPGEVPTSRGLSSGTLPGPGNEASRELESYC,0.1344,–,–,–,–,WT-like_arr,1.452,LoF_camp,<50% cAMP,0.1344
Y73H (protein) RAETGSKGQTAGELYQRWERYRRECQETLAAAEPPSGLACNGSFDMYVCWDHAAPNATARASCPWYLPWHHHVAAGFVLRQCGSDGQWGLWRDHTQCENPEKNEAFLDQRLILERLQVMYTVGYSLSLATLLLALLILSLFRRLHCTRNYIHINLFTSFMLRAAAILSRDRLLPRPGPYLGDQALALWNQALAACRTAQIVTQYCVGANYTWLLVEGVYLHSLLVLVGGSEEGHFRYYLLLGWGAPALFVIPWVIVRYLYENTQCWERNEVKAIWWIIRTPILMTILINFLIFIRILGILLSKLRTRQMRCRDYRLRLARSTLTLVPLLGVHEVVFAPVTEEQARGALRFAKLGFEIFLSSFQGFLVSVLYCFINKEVQSEIRRGWHHCRLRRSLGEEQRQLPERAFRALPSGSGPGEVPTSRGLSSGTLPGPGNEASRELESYC,–,–,0.06277,–,–,WT-like_arr,1.323,LoF_camp,<50% cAMP,0.06277
V99I (protein) RAETGSKGQTAGELYQRWERYRRECQETLAAAEPPSGLACNGSFDMYVCWDYAAPNATARASCPWYLPWHHHVAAGFILRQCGSDGQWGLWRDHTQCENPEKNEAFLDQRLILERLQVMYTVGYSLSLATLLLALLILSLFRRLHCTRNYIHINLFTSFMLRAAAILSRDRLLPRPGPYLGDQALALWNQALAACRTAQIVTQYCVGANYTWLLVEGVYLHSLLVLVGGSEEGHFRYYLLLGWGAPALFVIPWVIVRYLYENTQCWERNEVKAIWWIIRTPILMTILINFLIFIRILGILLSKLRTRQMRCRDYRLRLARSTLTLVPLLGVHEVVFAPVTEEQARGALRFAKLGFEIFLSSFQGFLVSVLYCFINKEVQSEIRRGWHHCRLRRSLGEEQRQLPERAFRALPSGSGPGEVPTSRGLSSGTLPGPGNEASRELESYC,–,–,–,0.04155,–,WT-like_arr,0.6225,LoF_camp,<50% cAMP,0.04155

# Now from value to molecule, other results behind:
Efficacy at 100pmol (cAMP) (GIPR M67R),Efficacy at 100pmol (cAMP) (GIPR T116R),Efficacy at 100pmol (cAMP) (GIPR Y73H),Efficacy at 100pmol (cAMP) (GIPR V99I),Efficacy at 100pmol (cAMP) (GIPR R101H),Molecule,In vitro groups (β-arrestin) (GIPR variants (groups) [1]),"Beta, Barr (GIPR variants (groups) [1])",In vitro groups (cAMP) (GIPR variants (groups) [2]),percentage_camp (GIPR variants (groups) [2]),"Beta, cAMP (GIPR variants (groups) [2])"
–,0.03526,–,–,–,T116R (protein) RAETGSKGQTAGELYQRWERYRRECQETLAAAEPPSGLACNGSFDMYVCWDYAAPNATARASCPWYLPWHHHVAAGFVLRQCGSDGQWGLWRDHRQCENPEKNEAFLDQRLILERLQVMYTVGYSLSLATLLLALLILSLFRRLHCTRNYIHINLFTSFMLRAAAILSRDRLLPRPGPYLGDQALALWNQALAACRTAQIVTQYCVGANYTWLLVEGVYLHSLLVLVGGSEEGHFRYYLLLGWGAPALFVIPWVIVRYLYENTQCWERNEVKAIWWIIRTPILMTILINFLIFIRILGILLSKLRTRQMRCRDYRLRLARSTLTLVPLLGVHEVVFAPVTEEQARGALRFAKLGFEIFLSSFQGFLVSVLYCFINKEVQSEIRRGWHHCRLRRSLGEEQRQLPERAFRALPSGSGPGEVPTSRGLSSGTLPGPGNEASRELESYC,WT-like_arr,0.6218,LoF_camp,<50% cAMP,0
–,–,–,–,0,R101H (protein) RAETGSKGQTAGELYQRWERYRRECQETLAAAEPPSGLACNGSFDMYVCWDYAAPNATARASCPWYLPWHHHVAAGFVLHQCGSDGQWGLWRDHTQCENPEKNEAFLDQRLILERLQVMYTVGYSLSLATLLLALLILSLFRRLHCTRNYIHINLFTSFMLRAAAILSRDRLLPRPGPYLGDQALALWNQALAACRTAQIVTQYCVGANYTWLLVEGVYLHSLLVLVGGSEEGHFRYYLLLGWGAPALFVIPWVIVRYLYENTQCWERNEVKAIWWIIRTPILMTILINFLIFIRILGILLSKLRTRQMRCRDYRLRLARSTLTLVPLLGVHEVVFAPVTEEQARGALRFAKLGFEIFLSSFQGFLVSVLYCFINKEVQSEIRRGWHHCRLRRSLGEEQRQLPERAFRALPSGSGPGEVPTSRGLSSGTLPGPGNEASRELESYC,LoF_arr,0,LoF_camp,<50% cAMP,0
